We go through 2 molecules from publication doi:10.1101/2023.03.22.533679, “Selective inhibitors of the Aurora A-TPX2 protein-protein interaction exhibit in vivo efficacy as targeted anti-mitotic agents” (bioRxiv, 2023).

Where no end group is shown, it is not given here.

Experiment [1] deals with T1, Aurora A kinase domain (residues 126-390) with hexa-His tag (human, UniProt O14965 126-390).
T1 construct: Aurora A, human, kinase domain only, residues 126-390, Uniprot O14965; construct for biophysical assays; No removal of the His tag is described; The crystallography constructs differ (Thr287Ala or Cys290Ala; or residues 126-391 without His tag); also called Aurora A protein; pBAT4-AurAS.003 construct; source: E. coli BL21(DE3) with pUBS520, co-expressed with lambda phosphatase, purified (HisTrap, …)
T1 sequence (looked up): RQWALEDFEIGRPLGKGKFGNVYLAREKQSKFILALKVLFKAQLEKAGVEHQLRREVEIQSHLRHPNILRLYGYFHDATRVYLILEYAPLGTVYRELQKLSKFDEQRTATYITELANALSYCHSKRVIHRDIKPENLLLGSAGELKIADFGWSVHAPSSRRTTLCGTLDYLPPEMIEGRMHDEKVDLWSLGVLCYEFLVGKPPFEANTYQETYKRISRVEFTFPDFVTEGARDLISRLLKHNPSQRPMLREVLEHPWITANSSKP
As to the kind of experiment: fluorescence polarisation; direct titration of up to 200 nM Aurora A to 11 nM labelled TPX2 peptide; 100 mM HEPES pH 7.4, 100 mM magnesium acetate, 50 mM NaCl, 0.02% P20, 1 mM DTT, 1 mM ATP, 10% (v/v) DMSO. As to conditions: both partners purified. A general note: In fluorescence polarisation assays a small probe gives low polarisation when free and higher when bound to something large.

Experiment [2] addresses T1, Aurora A kinase domain (residues …). Kind of experiment: ligand-based NMR competition; ligand-based NMR of fragment hits with Aurora A; displacement of the fragments by the TPX2 peptide fragment 7-22. As to conditions: both partners purified.

By Kd is commonly meant the equilibrium constant for the complex coming apart. Low readings indicate tighter binding, high ones weaker binding.

B1: TPX2 peptide (residues 7-43) with C-terminal GGGCSS tail, labelled with Alexa Fluor 488 (peptide)
peptide: SYSYDAPSDFINFSSLDDEGDTQNIDSWFEEKANLENGGGC(Alexa Fluor 488 C5 maleimide)SS
notes: TPX2 (Targeting protein for Xenopus kinesin-like protein 2), residues 7-43, Uniprot Q9ULW0; C-terminal tail that carries the cysteine for labelling; also called labelled TPX2 peptide; labelled TPX2; source: E. coli, purified (Ni Sepharose, labelled, cleaved with HRV 3C protease, second Ni Sepharose, reversed phase C18); not shown: His-tag, N-terminal, cleaved; GB1, N-terminal, cleaved
Molecule B1 yielded a Kd in experiment [1] of 1.2 nM.

B2: TPX2 peptide fragment (amino acids 7-22) (peptide, UniProt Q9ULW0 7-22, looked up)
peptide: SYSYDAPSDFINFSSL
notes: TPX2, amino acids 7-22; Uniprot Q9ULW0 is printed for the longer TPX2 peptide of the methods
In the case of B2, the binding result in experiment [2] is “binds”.
